Results on 4 substances are retold here after article doi:10.1101/058016.

In test [1] the target is PDZ123 of PSD-95 (residues 61-403), soluble recombinant fragment with all three PDZ domains (murine) (UniProt Q62108). The experiment in a line: SPR. (SPR reads the build-up and loss of mass on a sensor chip optically.)
The target of test [2] is PDZ123 (PSD-95 residues 61-402)-HaloTag fusion on HaloLink resin (murine) (UniProt Q62108). Put plainly: pull-down.
The target of test [3] is PDZ1 of PSD-95 (residues 61-151), soluble recombinant domain (murine) (UniProt Q62108). Put plainly: SPR.
Test [4] addresses PDZ3 of PSD-95 (residues 302-402), soluble recombinant domain (murine) (UniProt Q62108). Put plainly: SPR.
The target in test [5] is calmodulin (CaM), used with Ca2+ (UniProt P0DP23). The experiment in a line: SPR.
Test [6] has as its target calmodulin on CaM-Sepharose 4B (UniProt P0DP23). The experiment in a line: pull-down.

As usually defined, the Kd is the free concentration of one partner at which half of the binding sites on the other are occupied at equilibrium, for simple one-to-one binding.

Turning to r-synGAP S1283D (domain or fragment), the fold increase of KDapp over wild-type r-synGAP in test [1] stood at 4 fold. For the same substance, the percent reduction of binding relative to wild-type in test [2] was found to be 50%.
As to “r-synGAP (soluble recombinant synGAP, residues 103-1293 of synGAP A1-α1) (domain or fragment)”, the Kd came to 140 nM in test [3], 730 nM in test [4], 9 nM in test [5] and 31 nM in test [6].
As for “sr-synGAP (C-terminal truncated synGAP, residues 103-725 of synGAP A1-α1) (domain or fragment)”, in test [6], the Kd came out at 210 nM.
As for “r-synGAP phosphorylated by CaMKII (domain or fragment)”, the fold increase of KDapp over unphosphorylated r-synGAP in test [1] amounted to 10 fold.
